Results reported in the DeepSol protein solubility set.

Assay: soluble on expression in E. coli; label from the status in PepcDB or PDB records

| Sequence | soluble on expression in E. coli |
| --- | --- |
| SALAVEADPAADRVSSLSNVSGVLGSQWGDEGKGKLVDVLAPRFDIVARCQGGANAGHTIYNSEGKKFALHLVPSGILHEGTLCVVGNGAVIHVPGFFGEIDGLQSNGVSCDGRILVSDRAHLLFDLHQTVDGLREAELANSFIGTTKRGIGPCYSSKVTRNGLRVCDLRHMDTFGDKLDVLFEDAAARFEGFKYSKGMLKEEVERYKKFAERLEPFIADTVHVLNESIRQKKKILVEGGQATMLDIDFGTYPFVTSSSPSAGGICTGLGIAPRVIGDLIGVVKAYTTRVGSGPFPTELLGEEGDVLRKAGMEFGTTTGRPRRCGWLDIVALKYCCDINGFSSLNLTKLDVLSGLPEIKLGVSYNQMDGEKLQSFPGDLDTLEQVQVNYEVLPGWDSDISSVRSYSELPQAARRYVERIEELAGVPVHYIGVGPGRDALIYK | soluble |
| SARIILERFLQGHEQTPPSKSVINSMLRDPSQIPDGVLANQVYQCIVNDCCYGPLVDCIKHAIGYEHEVLLRDLLLKKNLSFLDEDQLRAKGYDKTPDFILQVPVAVEGHIIHWIESKASFGDECSHHAYLHGQFWSYWNRFGPGLVIYWYGFIQELDCNRERGILLKASFPTDIVTLCHSTA | soluble |
| SASEVEEQIPVREEFFLCGGVETKIIKCGPWTNLFEKQDVSKPKQLIFIIPGNPGYSAFYVPFAKALYTLMKSRFPVWIISHAGFSVTPKDKKVLAAPQEESNAQKIEDVYGLNGQIEHKIAFLRAHVPKDVKLILIGHSVGTYMTLHVMKRVPELPVAHAFLLFPTIERMSESPNGKFATPFLCQFRYLLYATSYLLFKPCPEVIKSFIIQKLMGQMNIKLELPLTDILQPFCLA | soluble |
| SASFQRKGLQARILSTEEEEKLKRDQALVSAFKQQKLEKEAQKNWDLFYKRNSTNFFKDRHWTTREFEELRSCREYEGQKLTLLEAGCGVGNCLFPLLEEDLNLFAYACDFSPRAVDYVKQHPLYNAERCKVFQCDLTRDDLLDHVPPESVDAVTLIFVLSAVHPEKMRLVLLNVYKVLKPGRSVLFRDYGLNDHAMLRFKAGSKLGENFYVRQDGTRSYFFTDEFLAQLFVDAGYEEVVNEYVFRETVNKKEGLCVPRVFLQSKFRKPPKDPAPTSDSASL | soluble |
| SATSVLCCLRCCRDGGTGHIPLKEMPAVQLDTQHMGIWGIGVATQKVNLNQIPLGRDMHSLVMRNDGALYHNNEEKNRLPANSLPQEGDVVGITYDHVELNVYLNGKNMHCPASGIRGTVYPVVYDDDSAILDCQFSEFYHTPPPGFEKILFEQQIF | soluble |
| SCSTSGCDLEEIPLDDDDLNTIEFKILAYYTRHHVFKSTPALFSPKLLRTRSLSQRGLGNCSANESWTEVSWPCRNSQSSEKAINLGKKKSSWKAFFGVVEKEDSQSTPAKVSAQGQRTLEYQDSHSQQWSRCLSNVEQCLEHEAVDPKVISIANRVAEIVYSWPPPQATQAGGFKSKEIFVTEGLSFQLQGHVPVASSSKKDEEEQILAKIVELLKYSGDQLERKLKKDKALMGHFQDGLSYSVFKTITDQVLMGVDPRGESEVKAQGFKAALVIDVTAKLTAIDNHPMNRVLGFGTKYLKENFSPWIQQHGGWEKILGISHEEVD | soluble |
| SDITLESLRHIIAQVLPHRDPALVFKDLNVVSMLQEFWESKQQQKAAFPSEGVVVYESLPAPGPPFVSYVTLPGGSCFGNFQCCLSRAEARRDAAKVALINSLFNELPSRRITKEFIMESVQEAVASTSGTLDDADDPSTSVGAYHYMLESNMGKTMLEFQELMTIFQLLHWNGSLKALRETKCSRQEVISYYSQYSLDEKMRSHMALDWIMKERDSPGIVSQELRMALRQLEEARKAGQELRFYKEKKEILSLALTQICSDPDTSSPSDDQLSLTALCGYH | soluble |
| SDKFLVRPDLRDLQGGGEEPAPTGGASGDLKSPDWRHLRAEGLSCDYTVLFGKAEADKIFRELEQEVEYFTGALAKVQVFGKWHSVPRKQATYGDAGLTYTFSGLTLTPKPWVPVLERVRDRVCEVTGQTFNFVLVNRYKDGCDHIGEHRDDERELAPGSPIASVSFGACRDFIFRHKDSRGKRPRRTVEVVRLQLAHGSLLMMNPPTNTHWYHSLPIRKRVLAPRVNLTFRKILPTKK | soluble |
| SDNGDWGHRLTHPVTLNVGGHLYTTSISTLQRYPDSMLGAMFRGDFPTTRDAQGNYFIDRDGTLFRYILNFLRTSELTLPVDFTELDLLRKEADFYQIEPLIQCLNDPKPLYPLDTFEQVVELSSTRKLSKYSNPVAVIITQLTITTKVHSLLEGISNNFTKWNKHMMDTRDCQVSFTFGPCDYHQEVSLRVHLMDYITKQGFTIRNTRVHHMSERANENTVEHHWTFCRLAYKVED | soluble |
| SDWKLEGSTQKVESPVLQGQEGILEETGEDGLPEGFQLLQIDAEGECQEGEILATGSTAWCSKNVQRKQRHWEKIVAAKKSKRKQEKERRKANRAENPGICPQHSKRFLRALTKDKLLEAKHSGPRLCIDLSMTHYMSKKELSRLAGQIRRLYGSNKKADRPFWICLTGFTTDSPLYEECVRMNDGFSSYLLDITEEDCFSLFPLETLVYLTPDSEHALEDVDLNKVYILGGLVDESIQKKVTFQKAREYSVKTARLPIQEYMVRNQNGKNYHSEILAINQVFDILSTYLETHNWPEALKKGVSSGKGYILRNSVE | soluble |
| SEKELRSTILFNAYKKEVFTTNTGYKSLQKRLRSNWKIQSLKDEITSEKLIGVKLWITAGPREKFTAAEFEVLKKYLDSGGDILVMLGEGGESRFDTNINFLLEEYGIMVNNDAVVRNVYYKYFHPKEALGSDGVLNREISRAAGKAVPGVIDEENSGNNAQALTFVYPFGATLSVMKPAVAVLSTGSVCFPLNRPILAFYHSKNQGFGKLAVLGSCHMFSDQYLDKEENSKIMDVVFQWLTTGDIHLNQIDAEDPEISDYTMVPDTATLSEQLRVCLQEGDENPRDFTTLFDLSIYQLDTTCLPKVIKAHEELNVKHEPLQLVQPQFEMPLPALQPAVFPPSFRELPPPPLELFDLDETFSSEKARLAQITNKCTDEDLEFYVMKCGDILGVTSKLPKDQQDAKHILEHIFFQVVEFKKLNQEAH | soluble |
| SFRFMRDVEPEDPMFLMDPFAIHRQHMSRMLSGGFGYSPFLSITDGNMPGTRPASRRMQQAGAVSPFGMLGMSGGFMDMFGMMNDMIGNMEHMTAGGNCQTFSSSTVISYSNTGDGAPKVYQETSEMRSAPGGIRETRRTVRDSDSGLEQMSIGHHIRDRAHILQRSRNHRTGDQEERQDYINLDESEAAAFDDEWRRETSRFRQQRPLEFRRLESSGAGGRRAEGPPRLAIQGPEDSPSRQSRRYDW | soluble |
| SFTMAQQSGGGLTRGSFPEGFVFGTASAAYQYEGAVKEDGRGQTIWDTFAHTFGKITDFSNADVAVDQYHRFEEDIQLMADMGMDAYRFSIAWSRIYPNGVGQVNQAGIDHYNKLIDALLAKGIQPYVTLYHWDLPQALEDKYKGWLDRQIVDDFAAYAETCFREFGDRVKHWITLNEPHTVAIQGYDAGLQAPGRCSVLLHLYCKAGNSGTEPYVVAHHFILAHAAAASIYRTKYKATQNGQLGIAFDVMWFEPMSNTTIDIEAAKRAQEFQLGWFADPFFFGDYPATMRARVGERLPRFTADEAAVVKGALDFVGINHYTTYYTRHNNTNIIGTLLNNTLADTGTVSLPFKNGKPIGDRANSIWLYIVPRGMRSLMNYVKERYNSPPVYITENGMDDSNNPFISIKDALKDSKRIKYHNDYLTNLAASIKEDGCDVRGYFAWSLLDNWEWAAGYSSRFGLYFVDYKDNLKRYPKNSVQWFKALLKT | soluble |
| SGCIQSITCKARIRRENIVVYDVCATIDQCPTRIEETSPIVLRYKTPYFKASARVVMPPIPRHETWVVGWIQACNQMEFFNTYSDLGMSSWELPDLREGRVKAISDSDGVSYPWYGNTTETVTLVGPTNKISRFSVSMNDNFYPSVTWAVPVSDSNVPLLTRIKRDQSFTTWLVAMNTTTKEKIILQTIKWRMRVDIEVDPLQLLGQRARLVGRTQQEQPRILSRMEPIPPNALVKPNANDAQVLMWRPKRGPPLVVIPPK | soluble |
| SGDVLWDIPTPKIIEECEHLEDGIYGIFQSTFLGASQRGVGVAQGGVFHTMWHVTRGAFLVRNGKKLIPSWASVKEDLVAYGGSWKLEGRWDGEEEVQLIAAVPGKNVVNVQTKPSLFKVRNGGEIGAVALDYPSGTSGSPIVNRNGEVIGLYGNGILVGDNSFVSAISQTEVKEEGKEELQEIPTMLKKGMTTVLDFHPGAGKTRRFLPQILAECARRRLRTLVLAPTRVVLSEMKEAFHGLDVKFHTQAFSAHGSGREVIDAMCHATLTYRMLEPTRVVNWEVIIMDEAHFLDPASIAARGWAAHRARANESATILMTATPPGTSDEFPHSNGEIEDVQTDIPSEPWNTGHDWILADKRPTAWFLPSIRAANVMAASLRKAGKSVVVLNRKTFEREYPTIKQKKPDFILATDIAEMGANLCVERVLDCRTAFKPVLVDEGRKVAIKGPLRISASSAAQRRGRIGRNPNRDGDSYYYSEPTSENNAHHVCWLEASMLLDNMEVRGGMVAPLYGVEGTKTPVSPGEMRLRDDQRKVFRELVRNCDLPVWLSWQVAKAGLKTNDRKWCFEGPEEHEILNDSGETVKCRAPGGAKKPLRPRWCDERVSSDQSALSEFIKFAEGRR | soluble |
| SGGRHIQAIRCWTIWKYMKDYFPISLVKTAELDPSRNYIAGFHPHGVLAVGAFANLCTESTGFSSIFPGIRPHLMMLTLWFRAPFFRDYIMSAGLVTSEKESAAHILNRKGGGNLLGIIVGGAQEALDARPGSFTLLLRNRKGFVRLALTHGAPLVPIFSFGENDLFDQIPNSSGSWLRYIQNRLQKIMGISLPLFHGRGVFQYSFGLIPYRRPITTVVGKPIEVQKTLHPSEEEVNQLHQRYIKELCNLFEAHKLKFNIPADQHLEFC | soluble |
| SGLVPRGSHMRLRPLGIEGVWEITPEQRADPRGVFLDWYHVDRFAEAIGRPLRLAQANLSVSVRGVVRGIHFVDVPPGQAKYVTCVRGAVFDVVVDLRVGSPTYGCWEGTRLDDVSRRAVYLSEGIGHGFCAISDEATLCYLSSGTYDPATEHGVHPLDPELAIDWPTGTPLLSPRDQDALLLAEARDAGLLPTYATCQAVTVPSPAPGSVGDPGP | soluble |
| SGNTSSERTGMGQEKANRRDSRGTKEGDRPKILMDSPEDADIFHGEDLKAPLEKEEFIEWRPDLEGSEKTDTLDRPTVFRWTGAGKEVYISGSFNNWTNKIPLIRSQNNFVAIVDLPEGEHQYKFYVDGLWTHDPTEPVVTNQLGTVNNIIQVKKTDFEVFDALMVDSQKCSDMSDLSSSPPGPYHQDAYTPKQEEKFKSPPILPPHLLQVILNKDTGISCDPALLPEPNHVMLNHLYALSIKDGVMVLSATHRYKKKYVTTLLYKPI | not soluble |
| SGRHERDAFDTLFDHAPDKLNVVKKTLITFVNKHLNKLNLEVTELETQFADGVYLVLLMGLLEGYFVPLHSFFLTPDSFEQKVLNVSFAFELMQDGGLEKPKPRPEDIVNCDLKSTLRVLYNLFTKYRNVE | soluble |
| SGSQAGSFRKASPQTPNIDENEKRIKRLEKLKRDLQNIKNERGILQGILAKYKDLNDRTNFETFMLEMQHNQMMTDLKRMSQDISEALYKCQHLTKENQLYCCRNCHLLIESNLIQHKVRMLWKENRQLLRKQIALEECNIKTKILCKEGSQKIKDEYSRQAAGKQIIVVPGSKEEAAMSNPCA | soluble |
| SKERRAPQPVVARCKLVLVGDVQCGKTAMLQVLAKDCYPETYVPTVFENYTACLETEEQRVELSLWDTSGSPYYDNVRPLCYSDSDAVLLCFDISRPETVDSALKKWRTEILDYCPSTRVLLIGCKTDLRTDLSTLMELSHQKQAPISYEQGCAIAKQLGAEIYLEGSAFTSEKSIHSIFRTASMLCLNKPSPLPQKSPVRSLSKRLLHLPSRSELISSTFKKEKAKSCSIM | soluble |
